The subject of series [1] is human prostate cancer C4-2 cell subcutaneous xenograft tumor. The series can be described thus: Pharmacodynamic assessment, C4-2 xenograft model. The series is classed as in vivo, NCG mouse. The following applies: 12.5 mg/kg i.v biw×3, day 23 after grouping. From the text:
Objective: Pre-clinical assessment of the efficacy of compounds for treating NCG mouse model with C4-2 cell subcutaneous xenograft tumor (overexpressing PSMA).
Procedures: C4-2 cells were subcutaneously grafted at the right back of the mice, and the mice were randomized when the mean tumor volume reached 100-150 mm^3. After the administration, the routine monitoring included the effect on tumor growth and the effect of treatment on the normal behavior of the animals, specifically the activity, food and water intake, weight gain or loss, the eyes, the hair, and other abnormal conditions. Clinical symptoms observed during the study were recorded in the raw data. After the administration was started, the body weight and tumor size of the mice were measured periodically. The tumor volume was calculated using the following formula: V=1/2×(a×b^2), where a and b denote the long diameter and short diameter of the tumor, respectively.

The nature of another series: Solubility study in PBS. In kind it is physicochemical. The settings on record: aqueous buffer, thermodynamic from solid; PBS (pH 7.2 to 7.4); read-out: Solubility, concentration. As to the method:
The mixture was vortexed for 2 min until the solid was dissolved. The solubility was calculated as: C=m/V, C: concentration, m: sample weight, V: PBS total volume.

For series [2], the system named is LNCaP. The settings on record: LNCap (PSMA overexpression), 72 h, CCK-8. As for the experimental part: (§1) Major reagents: 1640 folic acid-free medium, fetal bovine serum, penicillin-streptomycin solution, L-glutamine, and CCK8.
(§2) Cells were prepared in advance, trypsinized, collected, counted, diluted to 2×10^4 cells/mL in a complete cell culture medium, and plated in 96-well plates. The diluted cell suspension was added at 100 μL/well, and negative and blank control wells were set on each plate. The 96-well plates with the added cells were incubated overnight at 37° C. in a 5% CO2 incubator.
(§3) Samples were serially diluted with medium (serially 5-fold diluted from 10 μM) to 9 concentrations. The medium in the plates was discarded, and the drug solutions were added at 100 μL per well to a 96-well plate in triplicate. Negative and blank controls were set. The plates were incubated at 37° C. for 72 h in a 5% CO2 incubator.
(§4) A CCK-8 developing solution was added at 10 μL/well (10% of the liquid volume in the wells). The plates were incubated at 37° C. for a proper time (the OD value was controlled within the range of 1.0-2.5 as possible). The plate covers were removed, and the 96-well plates were loaded on a microplate reader (Molecular Devices SpectraMax iD5) to read the measurement at 450 nm.
(§5) Four-parameter curves were fitted using GraphPad Prism 8.0.2 to give IC50 values.

In another series the test system is MDA-MB-231-PSMA. The settings on record: 72 h, CCK-8. As to the method:
as §1, §2, §3, §4, §5

The next series deals with 22RV1. The following applies: 22RV1 (PSMA overexpression), 72 h, CCK-8. As for the experimental part:
as §1, §2, §3, §4, §5

The subject of another series is C4-2. The settings on record: C4-2 (PSMA overexpression), 72 h, CCK-8. As to the method:
as §1, §2, §3, §4, §5

A further series deals with 293T-PSMA. The following applies: 72 h, CCK-8. As to the method:
as §1, §2, §3, §4, §5

For another series, the system named is MDA-MB-231-FOLR1. The settings on record: MDA-MB-231-FOLR1, 72 h, CCK-8. As for the experimental part: as §1, §2, §3, §4, §5
The subject of series [3] is human prostate cancer 22RV1 cell subcutaneous xenograft tumor. The series can be described thus: Pharmacodynamic assessment, 22RV1 xenograft model. The series is classed as in vivo. From the text:
Objective: Pre-clinical pharmacodynamic study of compounds for treating BALB/c nude mouse model with 22RV1 cell subcutaneous xenograft tumor (overexpressing PSMA).
Procedures: 22RV1 tumor mass was grafted subcutaneously at the right back of the mice, and the mice were randomized after the mean tumor volume was 150 mm^3. After administration, the animals were monitored daily for health conditions and death, and the routine examinations included observation of the effect on tumor growth and the effect of the treatment on the daily performance of the animals, such as behavioral activities, food and water intake, weight changes (measured once every other day), appearance, or other abnormal conditions. Whether the tumor growth was inhibited or delayed or the tumor was cured was also observed. The tumor volume was measured periodically. The tumor volume was calculated using the following formula: V=1/2×(a×b^2), where a and b denote the long diameter and short diameter of the tumor, respectively.

The target of another series is cathepsin B-human liver (Homo sapiens, UniProt P07858). The series can be described thus: Cathepsin B cleavage study (HPLC). In kind it is in vitro ADME. Also on record: cathepsin B-human liver (source: Sigma); purchased Sigma; host or cells: human liver (tissue-derived, as the product name says). The following applies: 37° C. As to the method:
Procedures: The conjugate compounds were dissolved in acetonitrile-water (1:1, containing 0.1% TFA) to prepare 1 mg/mL stock solutions; 30 μL of the 1 mg/mL stock solution was added to 570 μL of 50 mM NaOAc (containing 1 mM EDTA and 10 mM cysteine), and the mixture was mixed well; 7 μL of cathepsin B (0.05 U/μL) was added, and the mixture was gently mixed evenly; the reaction system was transferred into a 37° C. thermostat for 0, 1, 2, 4, or 8 h of incubation; samples were taken at each time point for HPLC analysis.

A short description of another series: Plasma stability study 1. The series is classed as in vitro ADME. The following applies: mouse plasma, 37° C. As to the method: Procedures: The conjugate compounds were dissolved in acetonitrile-water (1:1) or acetonitrile-water (1:1, containing 0.1% TFA) to prepare 1 mg/mL stock solutions; 10 μL of the 1 mg/mL stock solution was added to 90 μL of plasma, and the mixture was gently mixed well. The plasma drug samples were shaken and incubated in a 37° C. thermostat for 0, 0.5, 1, 2, 4, 6, or 24 h; at the time points, the samples were taken out and 300 μL of methanol solution (containing 10 ng/ml of terfenadine) was added for protein precipitation; the mixture was centrifuged (12 min, 4° C., 12000 rpm) and the supernatant was collected, and preserved in a −80° C. refrigerator; after collection, the samples were loaded for LC-MS analysis.

The next series has as its system SK-OV-3. As to the kind of experiment: Expansion inhibition of tumor cells (Example 10, CCK-8). In kind it is cell-based. The settings on record: Homo sapiens, SK-OV-3 (FOLR1 overexpression), 72 h. As for the experimental part: (§6) Samples were serially diluted with medium (serially 5-fold diluted from 10 μM) to 9 concentrations. […] Negative and blank controls were set.
as §4

The subject of series [4] is LNCaP. Described as above. The series is classed as cell-based. The settings on record: Homo sapiens, LNCap (PSMA overexpression), 72 h. As to the method: as §6, §4
Setting [5] is: 12.5 mg/kg iv biw×3, day 31 after grouping.

This is an account of results in US20260007756A1, “COMPOUND AND USE THEREOF” (COHERENT BIOPHARMA (SUZHOU) LIMITED, priority 2022, published 2026).

Structures are written as SMILES. pIC50: −log10 of the molar value. Converted amounts (≈) assume the structure as drawn. Where two headings read alike, the source gives them in different places.

In general, TGI refers to how far tumour growth fell short of that in controls. Low readings indicate a weaker effect on the tumour, high ones a stronger effect on the tumour. Usually pIC50 stands for −log10 of the IC50, conventionally taken in molar units. Low values mean a high IC50, high ones a low IC50. Take `CC[C@@H]1C(=O)N(C)c2cnc(Nc3ccc(-c4cn(C5CCC(N(CCOCCC#Cc6cccc7c6CN(C6CCC(=O)NC6=O)C7=O)C(=O)OCc6ccc(NC(=O)[C@H](CCCNC(N)=O)NC(=O)[C@H](Cc7ccccc7)NC(=O)CCCCCN7C(=O)CC(SC[C@H](NC(=O)[C@H](CCCCN)NC(=O)[C@H](CC(=O)O)NC(=O)[C@H](CC(=O)O)NC(=O)Cc8ccc(CNC(=O)NCCCC[C@H](NC(=O)N[C@@H](CCC(=O)O)C(=O)O)C(=O)O)cc8)C(=O)N[C@@H](CCCCNC(=O)CC[C@H](NC(=O)c8ccc(NCc9cnc%10[nH]c(N)nc(=O)c%10n9)cc8)C(=O)O)C(N)=O)C7=O)cc6)CC5)nn4)cc3OC)nc2N1C1CCCC1` (stereo partly drawn) [CR20293]: the Mean tumor volume in [1] is listed as 778.70 mm^3; in series [3] (setting [5]) it was 46.32 mm^3. Besides, the inhibition of tumour growth (TGI) in series [1] stood at 55.47%; in series [3] (setting [5]), 97.51%. Further, the solubility at 2 min in the series “Solubility study in PBS” was 20.6 mg/mL (≈ 6.75 mM). Moreover, the negative-log IC50 (pIC50) in the series on LNCaP [2] was 7.42; in the series on MDA-MB-231-PSMA it was 7.15; in the series with 22RV1, 7.78; with C4-2 it was 7.11; with 293T-PSMA, 5.49; in the series with MDA-MB-231-FOLR1, 7.03. For the same molecule, in series [3] (tumor-bearing BALB/c nude mice, during the study), the “Tolerability (body weight, death)” value is “well tolerated”. Also, the “CR20274 release rate of conjugate compounds after cleavage” value came out at 0% in the series with cathepsin B-human liver (0 h); 17% with cathepsin B-human liver (1 h); 38% with cathepsin B-human liver (2 h); 59% with cathepsin B-human liver (4 h); 64% with cathepsin B-human liver (8 h). The “Principal component residue of conjugate compounds after cleavage” value with cathepsin B-human liver (0 h) is listed as 100%; in the series with cathepsin B-human liver (1 h), 76%; with cathepsin B-human liver (2 h), 46%; in the series with cathepsin B-human liver (4 h), 27%; with cathepsin B-human liver (8 h), 7%. Further, the “CR20274 release rate of compounds in plasma stability study” value in the series “Plasma stability study 1” (0 h) stood at 0.00%; in the series “Plasma stability study 1” (0.5 h), 0.17%; in the series “Plasma stability study 1” (1 h), 0.32%; in the series “Plasma stability study 1” (2 h), 0.52%; in “Plasma stability study 1” (4 h), 0.67%; in the series “Plasma stability study 1” (6 h), 0.95%. Moreover, in the series “Plasma stability study 1” (24 h), the “CR20274 release rate of compounds in plasma stability study” value was determined as 3.38%. The “Principal component residue of compounds in plasma stability study” value in “Plasma stability study 1” (0 h) was 83.13%. Besides, the remaining at 0.5 h, 100 μg/mL in the series “Plasma stability study 1” (0.5 h, read-out: Principal component residue of compounds in plasma stability study) came to 75.6%. Also, in “Plasma stability study 1” (1 h, read-out: Principal component residue of compounds in plasma stability study), the remaining at 1 h, 100 μg/mL was determined as 75.8%. In addition, the remaining at 2 h, 100 μg/mL in the series “Plasma stability study 1” (2 h, read-out: Principal component residue of compounds in plasma stability study) came out at 67.8%. The remaining at 4 h, 100 μg/mL in the series “Plasma stability study 1” (4 h, read-out: Principal component residue of compounds in plasma stability study) worked out at 69.8%. Moreover, the remaining at 6 h, 100 μg/mL in “Plasma stability study 1” (6 h, read-out: Principal component residue of compounds in plasma stability study) was found to be 70.5%. In “Plasma stability study 1” (24 h, read-out: Principal component residue of compounds in plasma stability study), the remaining at 24 h, 100 μg/mL is 45.4%.
The molecule `Cc1ncsc1-c1ccc(CNC(=O)C2CC(O)CN2C(=O)C(NC(=O)COCCOCCOCC(=O)NC2(C(=O)NCCCn3cc(-c4ccc(OC(F)(F)F)cc4)c4cc(CN5CCN(Cc6c(Cl)cccc6Cl)CC5)ccc43)CCNCC2)C(C)(C)C)cc1` (stereo not drawn) [CR202CI] gave a negative logarithm of the IC50 (pIC50) with SK-OV-3 of 9.52.
For `Cc1ncsc1-c1ccc(CNC(=O)C2CC(O)CN2C(=O)C(NC(=O)COCC(=O)NC2(C(=O)NCCCn3cc(-c4ccc(OC(F)(F)F)cc4)c4cc(CN5CCN(Cc6c(Cl)cccc6Cl)CC5)ccc43)CCNCC2)C(C)(C)C)cc1` (stereo not drawn) [CR202CC], the negative-log IC50 (pIC50) in the series on LNCaP [4] was 9.52.
For the molecule `Cc1ncsc1-c1ccc(CNC(=O)C2CC(O)CN2C(=O)C(NC(=O)COCCOCC(=O)NC2(C(=O)NCCCn3cc(-c4ccc(OC(F)(F)F)cc4)c4cc(CN5CCN(Cc6c(Cl)cccc6Cl)CC5)ccc43)CCNCC2)C(C)(C)C)cc1` (stereo not drawn) [CR202CF], the negative-log IC50 (pIC50) in the series with SK-OV-3 was 7.50.
